Data reported in US20210388087A1 (Chugai, published 2021).

Biological target: T1, CD3 epsilon homodimer protein (UniProt P07766 23-126)
T1 construct: also called CD3 (CD3 epsilon)
Experiment: SPR Biacore T200, CD3e homodimer on chip, vs unaltered GLS3000 antibody

T1 sequence (P07766 23-126): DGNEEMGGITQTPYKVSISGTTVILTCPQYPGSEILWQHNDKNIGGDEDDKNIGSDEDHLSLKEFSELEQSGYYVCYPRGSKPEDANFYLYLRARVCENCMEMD

Row | Binder | ratio of amounts bound (Z=Y/X)
1 | GLS3000 S25L (antibody, name in Kabat numbering, V domains shown, one-arm IgG as m2) VH: QVQLVESGGGVVQPGRSLRLSCAASGFTFSNAWMHWVRQAPGKGLEWVAQIKAKSNNYATYYAESVKGRFTISRDDSKNSLYLQMNSLKTEDTAVYYCRYVHYGAYYGVDAWGQGTTVTVSS VL: DIVMTQSPLSLPVTPGEPASISCRLSQSLVHSNRNTYLHWYQQKPGQAPRLLIYKVSNRFSGVPDRFSGSGSGTDFTLKISRVEAEDVGVYYCGQGTQVPYTFGQGTKLEIK | 0.24
2 | GLS3000 S25M (antibody, name in Kabat numbering, V domains shown, one-arm IgG as m2) VH: QVQLVESGGGVVQPGRSLRLSCAASGFTFSNAWMHWVRQAPGKGLEWVAQIKAKSNNYATYYAESVKGRFTISRDDSKNSLYLQMNSLKTEDTAVYYCRYVHYGAYYGVDAWGQGTTVTVSS VL: DIVMTQSPLSLPVTPGEPASISCRMSQSLVHSNRNTYLHWYQQKPGQAPRLLIYKVSNRFSGVPDRFSGSGSGTDFTLKISRVEAEDVGVYYCGQGTQVPYTFGQGTKLEIK | 0.31
3 | GLS3000 S27eG (antibody, name in Kabat numbering, V domains shown, one-arm IgG as m2) VH: QVQLVESGGGVVQPGRSLRLSCAASGFTFSNAWMHWVRQAPGKGLEWVAQIKAKSNNYATYYAESVKGRFTISRDDSKNSLYLQMNSLKTEDTAVYYCRYVHYGAYYGVDAWGQGTTVTVSS VL: DIVMTQSPLSLPVTPGEPASISCRSSQSLVHGNRNTYLHWYQQKPGQAPRLLIYKVSNRFSGVPDRFSGSGSGTDFTLKISRVEAEDVGVYYCGQGTQVPYTFGQGTKLEIK | 1.04
4 | GLS3000 S25T (antibody, name in Kabat numbering, V domains shown, one-arm IgG as m2) VH: QVQLVESGGGVVQPGRSLRLSCAASGFTFSNAWMHWVRQAPGKGLEWVAQIKAKSNNYATYYAESVKGRFTISRDDSKNSLYLQMNSLKTEDTAVYYCRYVHYGAYYGVDAWGQGTTVTVSS VL: DIVMTQSPLSLPVTPGEPASISCRTSQSLVHSNRNTYLHWYQQKPGQAPRLLIYKVSNRFSGVPDRFSGSGSGTDFTLKISRVEAEDVGVYYCGQGTQVPYTFGQGTKLEIK | 0.83
5 | GLS3000 S26P (antibody, name in Kabat numbering, V domains shown, one-arm IgG as m2) VH: QVQLVESGGGVVQPGRSLRLSCAASGFTFSNAWMHWVRQAPGKGLEWVAQIKAKSNNYATYYAESVKGRFTISRDDSKNSLYLQMNSLKTEDTAVYYCRYVHYGAYYGVDAWGQGTTVTVSS VL: DIVMTQSPLSLPVTPGEPASISCRSPQSLVHSNRNTYLHWYQQKPGQAPRLLIYKVSNRFSGVPDRFSGSGSGTDFTLKISRVEAEDVGVYYCGQGTQVPYTFGQGTKLEIK | 0.78
6 | GLS3000 S27aN (antibody, name in Kabat numbering, V domains shown, one-arm IgG as m2) VH: QVQLVESGGGVVQPGRSLRLSCAASGFTFSNAWMHWVRQAPGKGLEWVAQIKAKSNNYATYYAESVKGRFTISRDDSKNSLYLQMNSLKTEDTAVYYCRYVHYGAYYGVDAWGQGTTVTVSS VL: DIVMTQSPLSLPVTPGEPASISCRSSQNLVHSNRNTYLHWYQQKPGQAPRLLIYKVSNRFSGVPDRFSGSGSGTDFTLKISRVEAEDVGVYYCGQGTQVPYTFGQGTKLEIK | 1.1
7 | GLS3000 S27eF (antibody, name in Kabat numbering, V domains shown, one-arm IgG as m2) VH: QVQLVESGGGVVQPGRSLRLSCAASGFTFSNAWMHWVRQAPGKGLEWVAQIKAKSNNYATYYAESVKGRFTISRDDSKNSLYLQMNSLKTEDTAVYYCRYVHYGAYYGVDAWGQGTTVTVSS VL: DIVMTQSPLSLPVTPGEPASISCRSSQSLVHFNRNTYLHWYQQKPGQAPRLLIYKVSNRFSGVPDRFSGSGSGTDFTLKISRVEAEDVGVYYCGQGTQVPYTFGQGTKLEIK | 1.32
8 | GLS3000 S27aE (antibody, name in Kabat numbering, V domains shown, one-arm IgG as m2) VH: QVQLVESGGGVVQPGRSLRLSCAASGFTFSNAWMHWVRQAPGKGLEWVAQIKAKSNNYATYYAESVKGRFTISRDDSKNSLYLQMNSLKTEDTAVYYCRYVHYGAYYGVDAWGQGTTVTVSS VL: DIVMTQSPLSLPVTPGEPASISCRSSQELVHSNRNTYLHWYQQKPGQAPRLLIYKVSNRFSGVPDRFSGSGSGTDFTLKISRVEAEDVGVYYCGQGTQVPYTFGQGTKLEIK | 0.81
9 | GLS3000 S27aY (antibody, name in Kabat numbering, V domains shown, one-arm IgG as m2) VH: QVQLVESGGGVVQPGRSLRLSCAASGFTFSNAWMHWVRQAPGKGLEWVAQIKAKSNNYATYYAESVKGRFTISRDDSKNSLYLQMNSLKTEDTAVYYCRYVHYGAYYGVDAWGQGTTVTVSS VL: DIVMTQSPLSLPVTPGEPASISCRSSQYLVHSNRNTYLHWYQQKPGQAPRLLIYKVSNRFSGVPDRFSGSGSGTDFTLKISRVEAEDVGVYYCGQGTQVPYTFGQGTKLEIK | 1.1
10 | GLS3000 S27eE (antibody, name in Kabat numbering, V domains shown, one-arm IgG as m2) VH: QVQLVESGGGVVQPGRSLRLSCAASGFTFSNAWMHWVRQAPGKGLEWVAQIKAKSNNYATYYAESVKGRFTISRDDSKNSLYLQMNSLKTEDTAVYYCRYVHYGAYYGVDAWGQGTTVTVSS VL: DIVMTQSPLSLPVTPGEPASISCRSSQSLVHENRNTYLHWYQQKPGQAPRLLIYKVSNRFSGVPDRFSGSGSGTDFTLKISRVEAEDVGVYYCGQGTQVPYTFGQGTKLEIK | 0.76
11 | GLS3000 S27eD (antibody, name in Kabat numbering, V domains shown, one-arm IgG as m2) VH: QVQLVESGGGVVQPGRSLRLSCAASGFTFSNAWMHWVRQAPGKGLEWVAQIKAKSNNYATYYAESVKGRFTISRDDSKNSLYLQMNSLKTEDTAVYYCRYVHYGAYYGVDAWGQGTTVTVSS VL: DIVMTQSPLSLPVTPGEPASISCRSSQSLVHDNRNTYLHWYQQKPGQAPRLLIYKVSNRFSGVPDRFSGSGSGTDFTLKISRVEAEDVGVYYCGQGTQVPYTFGQGTKLEIK | 0.69
12 | GLS3000 S25V (antibody, name in Kabat numbering, V domains shown, one-arm IgG as m2) VH: QVQLVESGGGVVQPGRSLRLSCAASGFTFSNAWMHWVRQAPGKGLEWVAQIKAKSNNYATYYAESVKGRFTISRDDSKNSLYLQMNSLKTEDTAVYYCRYVHYGAYYGVDAWGQGTTVTVSS VL: DIVMTQSPLSLPVTPGEPASISCRVSQSLVHSNRNTYLHWYQQKPGQAPRLLIYKVSNRFSGVPDRFSGSGSGTDFTLKISRVEAEDVGVYYCGQGTQVPYTFGQGTKLEIK | 0.73
13 | GLS3000 S27aP (antibody, name in Kabat numbering, V domains shown, one-arm IgG as m2) VH: QVQLVESGGGVVQPGRSLRLSCAASGFTFSNAWMHWVRQAPGKGLEWVAQIKAKSNNYATYYAESVKGRFTISRDDSKNSLYLQMNSLKTEDTAVYYCRYVHYGAYYGVDAWGQGTTVTVSS VL: DIVMTQSPLSLPVTPGEPASISCRSSQPLVHSNRNTYLHWYQQKPGQAPRLLIYKVSNRFSGVPDRFSGSGSGTDFTLKISRVEAEDVGVYYCGQGTQVPYTFGQGTKLEIK | 0.99
14 | GLS3000 S27eH (antibody, name in Kabat numbering, V domains shown, one-arm IgG as m2) VH: QVQLVESGGGVVQPGRSLRLSCAASGFTFSNAWMHWVRQAPGKGLEWVAQIKAKSNNYATYYAESVKGRFTISRDDSKNSLYLQMNSLKTEDTAVYYCRYVHYGAYYGVDAWGQGTTVTVSS VL: DIVMTQSPLSLPVTPGEPASISCRSSQSLVHHNRNTYLHWYQQKPGQAPRLLIYKVSNRFSGVPDRFSGSGSGTDFTLKISRVEAEDVGVYYCGQGTQVPYTFGQGTKLEIK | 1.23
15 | GLS3000 S27eA (antibody, name in Kabat numbering, V domains shown, one-arm IgG as m2) VH: QVQLVESGGGVVQPGRSLRLSCAASGFTFSNAWMHWVRQAPGKGLEWVAQIKAKSNNYATYYAESVKGRFTISRDDSKNSLYLQMNSLKTEDTAVYYCRYVHYGAYYGVDAWGQGTTVTVSS VL: DIVMTQSPLSLPVTPGEPASISCRSSQSLVHANRNTYLHWYQQKPGQAPRLLIYKVSNRFSGVPDRFSGSGSGTDFTLKISRVEAEDVGVYYCGQGTQVPYTFGQGTKLEIK | 1.03
16 | GLS3000 S26E (antibody, name in Kabat numbering, V domains shown, one-arm IgG as m2) VH: QVQLVESGGGVVQPGRSLRLSCAASGFTFSNAWMHWVRQAPGKGLEWVAQIKAKSNNYATYYAESVKGRFTISRDDSKNSLYLQMNSLKTEDTAVYYCRYVHYGAYYGVDAWGQGTTVTVSS VL: DIVMTQSPLSLPVTPGEPASISCRSEQSLVHSNRNTYLHWYQQKPGQAPRLLIYKVSNRFSGVPDRFSGSGSGTDFTLKISRVEAEDVGVYYCGQGTQVPYTFGQGTKLEIK | 0.74
17 | GLS3000 S26D (antibody, name in Kabat numbering, V domains shown, one-arm IgG as m2) VH: QVQLVESGGGVVQPGRSLRLSCAASGFTFSNAWMHWVRQAPGKGLEWVAQIKAKSNNYATYYAESVKGRFTISRDDSKNSLYLQMNSLKTEDTAVYYCRYVHYGAYYGVDAWGQGTTVTVSS VL: DIVMTQSPLSLPVTPGEPASISCRSDQSLVHSNRNTYLHWYQQKPGQAPRLLIYKVSNRFSGVPDRFSGSGSGTDFTLKISRVEAEDVGVYYCGQGTQVPYTFGQGTKLEIK | 0.86
18 | GLS3000 S27aI (antibody, name in Kabat numbering, V domains shown, one-arm IgG as m2) VH: QVQLVESGGGVVQPGRSLRLSCAASGFTFSNAWMHWVRQAPGKGLEWVAQIKAKSNNYATYYAESVKGRFTISRDDSKNSLYLQMNSLKTEDTAVYYCRYVHYGAYYGVDAWGQGTTVTVSS VL: DIVMTQSPLSLPVTPGEPASISCRSSQILVHSNRNTYLHWYQQKPGQAPRLLIYKVSNRFSGVPDRFSGSGSGTDFTLKISRVEAEDVGVYYCGQGTQVPYTFGQGTKLEIK | 1
19 | GLS3000 S27aD (antibody, name in Kabat numbering, V domains shown, one-arm IgG as m2) VH: QVQLVESGGGVVQPGRSLRLSCAASGFTFSNAWMHWVRQAPGKGLEWVAQIKAKSNNYATYYAESVKGRFTISRDDSKNSLYLQMNSLKTEDTAVYYCRYVHYGAYYGVDAWGQGTTVTVSS VL: DIVMTQSPLSLPVTPGEPASISCRSSQDLVHSNRNTYLHWYQQKPGQAPRLLIYKVSNRFSGVPDRFSGSGSGTDFTLKISRVEAEDVGVYYCGQGTQVPYTFGQGTKLEIK | 0.79
20 | GLS3000 S27aG (antibody, name in Kabat numbering, V domains shown, one-arm IgG as m2) VH: QVQLVESGGGVVQPGRSLRLSCAASGFTFSNAWMHWVRQAPGKGLEWVAQIKAKSNNYATYYAESVKGRFTISRDDSKNSLYLQMNSLKTEDTAVYYCRYVHYGAYYGVDAWGQGTTVTVSS VL: DIVMTQSPLSLPVTPGEPASISCRSSQGLVHSNRNTYLHWYQQKPGQAPRLLIYKVSNRFSGVPDRFSGSGSGTDFTLKISRVEAEDVGVYYCGQGTQVPYTFGQGTKLEIK | 1.03
21 | GLS3000 S25P (antibody, name in Kabat numbering, V domains shown, one-arm IgG as m2) VH: QVQLVESGGGVVQPGRSLRLSCAASGFTFSNAWMHWVRQAPGKGLEWVAQIKAKSNNYATYYAESVKGRFTISRDDSKNSLYLQMNSLKTEDTAVYYCRYVHYGAYYGVDAWGQGTTVTVSS VL: DIVMTQSPLSLPVTPGEPASISCRPSQSLVHSNRNTYLHWYQQKPGQAPRLLIYKVSNRFSGVPDRFSGSGSGTDFTLKISRVEAEDVGVYYCGQGTQVPYTFGQGTKLEIK | 1.01
